Measured values reported in article PMC5554155.

Assay: immunoblot, N-terminal Flag vs C-terminal epitopes, ldlD cells
Conditions: glycan lost; control: WT Ser49-β1AR, ldlD cells with Gal/GalNAc

Row | Substance | other: proteolytic processing
1 | β1-adrenergic receptor (β1AR): N15A | no change
2 | β1-adrenergic receptor (β1AR): ldlD cells without Gal/GalNAc | increases
